Experimental data: article PMC12018048, “Intranasal kisspeptin administration rapidly stimulates gonadotropin release in humans” (eBioMedicine, 2025)

Columns and labels:
[1] = parameters: method as in PMID 37467734; details: intravenous and subcutaneous routes, over 1000 healthy men and women and patients; cited from earlier work
[2] = Stability of kisspeptin-54 solutions for nasal delivery; assay type: physicochemical; details: for Reduction of the initial concentration: after 60 days, HPLC; for % of initial concentration: chemical stability, 3.5 mg/mL in 0.9% saline, HPLC-UV 220 nm, mean ± SEM, N = 3
Method: Kisspeptin-54 3.5 mg/mL solutions, equivalent to the lowest dose used in the human clinical study, were prepared and aliquoted into glass nasal spray devices and sealed amber glass vials (airtight, light protected control). The test materials were stored upright in a single location (4 °C refrigerator with temperature monitoring) with minimal manipulation or movement for 60 days. On each day of analysis, three aliquots were sampled from each container and analysed by HPLC.
Each kisspeptin-54 sample was assayed in triplicate using a Waters 2795 Separation Module HPLC equipped with Waters 2996 Photodiode Array Detector and a Luna® 3 μm C18 100 Å LC Column 150 × 4.6 mm with trimethylsilyl (TMS) end capping used. Injection volume was 25 μL and the mobile phase was a gradient using eluent A (0.05% trifluoroacetic acid (TFA):1% acetonitrile (ACN): 98.95% H20) and eluent B (0.05% TFA in MeOH/ACN 1:1(V/V)) from 20 to 60% eluent B with a flow rate of 1 mL/min and a run time of 15 min. Column temperature was set at 40 °C and ultraviolet (UV) detection at 220 nm. The assay was validated for linearity (r = 0.993), accuracy and precision in the range 0.3–0.7 mg/mL.

[3] = human, cited from earlier work
Method: This was a randomised, double-blinded, crossover, placebo-controlled clinical study (Fig. 1, Fig. 2, Fig. 3a). Participants were admitted to the Clinical Research Unit (Imperial College Healthcare NHS Trust) and completed five (in healthy men) or two (in healthy women and patients with HA) study visits. […] Study visits in healthy women were conducted in the follicular phase of the menstrual cycle (i.e., days 2–10 inclusive) to contr ... || page 10: Research Governance and Integrity Team Throughout the study there will be at least one physician available 24 hours per day via a direct line, with a second physician on back up, and a secondary direct line to one of the senior physicians. […] Kisspeptin is rapidly cleared (11, 12) and participants would not be anticipated to experience any delayed effects on completion of the study visit. The Chief Investigato ...

[4] = system: serum LH, FSH, oestradiol and progesterone; experiment: Intranasal kisspeptin-54, reproductive hormone profiles in healthy women; assay type: in vivo, human; details: N = 12
Method: This was a randomised, double-blinded, crossover, placebo-controlled clinical study (Fig. 1, Fig. 2, Fig. 3a). Participants were admitted to the Clinical Research Unit (Imperial College Healthcare NHS Trust) and completed five (in healthy men) or two (in healthy women and patients with HA) study visits. […] Study visits in healthy women were conducted in the follicular phase of the menstrual cycle (i.e., days 2–10 inclusive) to control for changes in reproductive hormones over the course of the cycle and were conducted across two different menstrual cycles to allow washout.
All studies commenced at 08:00 to control for circadian hormonal changes. Participants were instructed to abstain from alcohol, caffeine, and sexual activities from 22:00 preceding each study visit. On arrival, an intravenous cannula was inserted into one antecubital fossa, and blood was sampled at timepoints −30, −15, and 0 min, before intranasal administration of kisspeptin-54 or 0.9% saline (placebo). Following participant education (described below), healthy men self-administered the following 5 interventions under supervision in random order via the intranasal route: 3.2, 6.4, 12.8, and 25.6 nmol/kg of kisspeptin-54, or placebo. Healthy women and patients with HA attended for the same protocol comparing 12.8 nmol/kg of kisspeptin-54 and placebo in random order. After administration of kisspeptin-54 or placebo at timepoint 0 min, serum levels of LH, FSH, and testosterone (in men), or oestradiol and progesterone (in women) were measured every 15 min for 4 h. Heart rate, blood pressure, and the presence of adverse symptoms were recorded every 15 min.
Kisspeptin-54 or placebo was self-administered using nasal spray devices that delivered a single volume of 100 μL per actuation (SP270+ pump, 3959 actuator, 5 mL SGD U-Save glass bottles provided by Nemera, La Verpillière, France). The kisspeptin-54 nasal spray solution formulations were prepared by reconstituting kisspeptin-54 powder stored in sterile vials on the morning of each study visit to produce a solution containing the target dose according to body weight in 400 μL.
Participants were familiarised with the procedure of intranasal application and were provided with written administration instructions ahead of each study visit, as described in.[38] In addition, participants received a 5-min training session using a dummy nasal spray device before starting the study to ensure good technique, which all participants easily understood. Under instruction and supervision from the clinical team, participants primed the nasal sprays then self-administered a total of four sprays of kisspeptin-54 or placebo per visit (i.e., 4 × 100 μL), alternating between nostrils and leaving 60 s between sprays, to allow satisfactory dissipation and avoid solution running out of the nostrils. Nasal sprays containing kisspeptin or placebo were identical in appearance, volume, and administration technique.
Blood samples were collected to measure serum reproductive hormone levels at the timepoints depicted in Fig. 1, Fig. 2, Fig. 3a. Serum samples were stored at −20 °C until analysis. Serum LH, FSH, testosterone (in men), and oestradiol and progesterone (in women) were measured using automated chemiluminescent immunoassays (Abbott Diagnostics, Maidenhead, UK: LH catalogue # 2P40-25, FSH catalogue # 7K75-25, testosterone catalogue # 07K7320, oestradiol catalogue # 7K72-25, progesterone catalogue # 7K77-25). Reference ranges: LH in international units per litre (IU/L), 2–12 (men), 2–10 (follicular), 20–60 (mid-cycle), 4–14 (luteal); FSH in IU/L, 1.7–8 (men), 1.5–8.0 (follicular and luteal), 10–50 (mid-cycle); in men: testosterone in nanomoles per litre (nmol/L), 10–30; and in women: oestradiol in picomoles per litre (pmol/L), <300 (early follicular), 400–1500 (mid-cycle), 200–1000 (luteal) and progesterone in nmol/L, <5.0 (follicular), 3.5–67 (luteal). […]

[5] = follicular phase, intranasal 12.8 nmol/kg, 4 h sampling, mean ± SEM
[6] = follicular phase, intranasal 12.8 nmol/kg, mean ± SEM
[7] = intranasal 12.8 nmol/kg vs placebo, paired t-test
[8] = intranasal 12.8 nmol/kg, two-way ANOVA, 4 h time profile

Substance: Kisspeptin-54
- Adverse effects [1]: without any observed adverse effects
- Time within pharmaceutically accepted limits for stability ([2]; 0.9% saline solution, 4 °C): up to 60 days
- Appearance of the solution (clear when freshly made) ([2]; 0.9% saline, 4 °C, 60 days of storage, either container type): no change was observed
- Reduction of the initial concentration ([2]; 0.9% saline, 4 °C, glass nasal spray devices): 5.4%
- Reduction of the initial concentration ([2]; 0.9% saline, 4 °C, sealed amber glass vials): 5.0%
- % of initial concentration ([2]; 4 °C in nasal spray, 4 days): 98.06 ± 1.11%
- % of initial concentration ([2]; 4 °C in nasal spray, 7 days): 98.28 ± 0.69%
- % of initial concentration ([2]; 4 °C in nasal spray, 14 days): 97.90 ± 0.67%
- % of initial concentration ([2]; 4 °C in nasal spray, 28 days): 96.11 ± 0.51%
- % of initial concentration ([2]; 4 °C in nasal spray, 60 days): 94.56 ± 1.67%
- % of initial concentration ([2]; 4 °C in sealed amber vial, 4 days): 98.94 ± 0.57%
- % of initial concentration ([2]; 4 °C in sealed amber vial, 7 days): 98.69 ± 0.58%
- % of initial concentration ([2]; 4 °C in sealed amber vial, 14 days): 97.91 ± 0.64%
- % of initial concentration ([2]; 4 °C in sealed amber vial, 28 days): 97.32 ± 0.56%
- % of initial concentration ([2]; 4 °C in sealed amber vial, 60 days): 95.01 ± 1.45%
- Intravenous half-life ([3]; study protocol (supplement 2)): 28 min
- Circulating half-life [3]: 27.6 min
- AUC of the change in serum FSH [4, 5]: -36.1 ± 23.4 h·IU/L
- AUC of the change in serum LH [4, 5]: 96.0 ± 45.8 h·IU/L
- Maximum increase from baseline in serum FSH [4, 6]: 0.3 ± 0.1 IU/L
- Maximum increase from baseline in serum LH [4, 6]: 1.4 ± 0.3 IU/L
- FSH AUC, mean difference vs placebo [4, 7]: 76.4 h·IU/L
- FSH maximum increase, mean difference vs placebo [4, 7]: 0.4 IU/L
- LH AUC, mean difference vs placebo [4, 7]: 179.8 h·IU/L
- LH maximum increase, mean difference vs placebo [4, 7]: 1.0 IU/L
- Effect on circulating oestradiol and progesterone levels ([4]; intranasal 12.8 nmol/kg, acute 4-h time-course): no significant effects
- Serum FSH over time, mean difference vs placebo [4, 8]: 0.3 IU/L
- Serum LH over time, mean difference vs placebo [4, 8]: 0.7 IU/L
